Columns and labels:
[1] = molecular target: T1, recombinant human IGF-I receptor His tag (305-GR-050, R&D SYSTEMS) (human, UniProt P08069 31-932, limits assumed); assay: SPR, Biacore T200
T1 construct: Bought protein, captured on an anti-His antibody chip; also called IGF-IR-His; not shown: His tag
Protocol: (§1) The sensor chip CM3 immobilized with the anti-His monoclonal antibody was set to Biacore T200, the reaction temperature was set to 36° C., and a running buffer (HBS-EP+, BR-1006-69, GE) was fed at a flow rate 30 μL/min. The amount of the binding ligand was set to about 100 RU, and IGF-IR-His (0.5 to 2×10⁻⁸ mol/L) was added to the sensor chip to be captured by the anti-His monoclonal antibody. Ctrl IgG2a (10 nmol/L) was allowed to react for 1 minute, and HBS-EP+ was fed at a flow rate of 30 μL/min for at least 10 minutes. The analyte and HBS-EP+ were added to flow cells (1 and 2) and flow cells (3 and 4), respectively.
(§2) The reaction conditions were set to a binding time of 600 seconds and a dissociation time of 600 seconds. After completion of the reaction, washing was performed with regeneration buffer 1 (0.2% SDS), regeneration buffer 2 (100 mmol/L Tris-HCl (pH 8.5), 1 mol/L NaCl, 15 mmol/L MgCl₂), and regeneration buffer 3 (10 mmol/L glycine-HCl (pH 1.5)) for 1 minute each at a flow rate of 30 μL/min.

[2] = molecular target: T2, rabbit IGF-I receptor (rabbit); assay: Cell ELISA, 10 nM antibody, fixed P3U1 cells expressing the receptor
T2 construct: Expressed on transfected P3U1 cells; also called XP_017193273
T2 sequence (chain, as listed by the source limits assumed): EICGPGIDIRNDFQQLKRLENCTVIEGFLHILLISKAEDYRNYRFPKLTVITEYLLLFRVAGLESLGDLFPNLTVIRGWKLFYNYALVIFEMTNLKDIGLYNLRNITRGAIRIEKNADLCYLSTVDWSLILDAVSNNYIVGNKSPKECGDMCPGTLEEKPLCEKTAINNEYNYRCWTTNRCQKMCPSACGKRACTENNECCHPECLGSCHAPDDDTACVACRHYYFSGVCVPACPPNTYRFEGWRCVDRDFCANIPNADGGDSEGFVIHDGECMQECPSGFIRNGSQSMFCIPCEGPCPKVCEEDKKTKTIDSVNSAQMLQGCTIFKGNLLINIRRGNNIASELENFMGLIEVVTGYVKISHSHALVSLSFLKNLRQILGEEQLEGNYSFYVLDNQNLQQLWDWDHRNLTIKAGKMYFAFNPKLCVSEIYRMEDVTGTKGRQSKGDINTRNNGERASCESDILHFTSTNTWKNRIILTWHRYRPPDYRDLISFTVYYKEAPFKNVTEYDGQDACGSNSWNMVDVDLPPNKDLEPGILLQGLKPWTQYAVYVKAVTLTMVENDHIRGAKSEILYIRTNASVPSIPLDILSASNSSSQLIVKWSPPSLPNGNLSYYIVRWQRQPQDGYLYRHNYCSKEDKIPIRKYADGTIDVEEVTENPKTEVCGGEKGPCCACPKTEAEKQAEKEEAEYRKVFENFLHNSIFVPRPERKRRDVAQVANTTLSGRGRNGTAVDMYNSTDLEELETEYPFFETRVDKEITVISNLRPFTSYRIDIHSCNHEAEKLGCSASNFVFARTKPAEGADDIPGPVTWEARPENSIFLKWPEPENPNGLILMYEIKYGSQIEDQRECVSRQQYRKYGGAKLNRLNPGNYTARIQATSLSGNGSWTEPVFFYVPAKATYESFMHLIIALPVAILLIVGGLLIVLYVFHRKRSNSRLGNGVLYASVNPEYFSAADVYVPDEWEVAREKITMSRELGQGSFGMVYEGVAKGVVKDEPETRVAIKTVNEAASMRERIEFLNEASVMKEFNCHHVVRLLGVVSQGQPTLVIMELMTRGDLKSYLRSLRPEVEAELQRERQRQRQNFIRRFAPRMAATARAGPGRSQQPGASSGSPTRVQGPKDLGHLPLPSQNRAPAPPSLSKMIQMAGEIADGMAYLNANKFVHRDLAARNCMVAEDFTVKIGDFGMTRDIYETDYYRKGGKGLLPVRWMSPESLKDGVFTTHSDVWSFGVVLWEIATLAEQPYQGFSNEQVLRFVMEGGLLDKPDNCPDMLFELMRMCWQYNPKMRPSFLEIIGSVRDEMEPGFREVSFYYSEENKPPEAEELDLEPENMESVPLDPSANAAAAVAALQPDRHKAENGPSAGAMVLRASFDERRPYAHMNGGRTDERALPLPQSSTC
Protocol: (§3) After the lipofection, the P3U1 cells were cultured at least overnight and were added to a 96-well plate (coated with poly-D-lysine) at a concentration of 0.8×10⁵ cells/well and immobilized with 10% buffered formalin (Mildform® 10 NM, Wako), followed by blocking with phosphate buffer containing 3% BSA. The resulting plate was used for ELISA.
(§4) After washing with a washing liquid twice, anti-mouse-IgG antibody-HRP conjugate solutions (30 μL) adjusted to predetermined concentrations with 0.1% skimmed milk/3% BSA/PBS were added to respective wells and were subjected to reaction at room temperature for about 1 hour. After washing with a washing liquid twice, 50 μL of a substrate (TMB) was added to each well to start the reaction. After about 20 minutes, 50 μL of 0.5 M sulfuric acid was added to each well. The absorbances at 450 nm and 550 nm were measured, and the difference between absorbance values at 450 nm and 550 nm was calculated.

[3] = molecular target: T3, cynomolgus monkey IGF-I receptor (cynomolgus monkey, UniProt P08069 31-1367 (human entry)); assay: as above
T3 construct: Expressed on transfected P3U1 cells; also called NP_001248281
Protocol: as §3, §4

[4] = molecular target: human IGF-I receptor (human, UniProt P08069 31-1367); assay: cell-based or functional assay
[5] = molecular target: guinea pig IGF-I receptor (guinea pig, UniProt P08069 31-1367 (human entry)); assay: cell-based or functional assay
[6] = molecular target: T4, Substitution 3 of the CR domain (human IGF-I receptor G315S/S316T, FLAG tag) (human, UniProt P08069 31-1367); assay: Cell ELISA on HEK 293T cells expressing the substitution
T4 construct: Expressed on transfected HEK 293T cells
Protocol: (§5) HEK 293T cells were seeded in a 10-cm dish coated with poly-D-lysine at 9×10⁶ cells/well. On the next day, each plasmid DNA was transfected into the cells by lipofection. On the following day, the HEK 293T cells were detached with 0.25% trypsin/EDTA and were suspended in a broth. The HEK 293T cells were added to a 96-well plate (coated with poly-D-lysine) at a concentration of 0.8×10⁵ cells/well and were incubated at 37° C. under conditions of 5% CO₂ overnight. The medium was removed from the 96-well plate, and the cells were immobilized with a 10% buffered formalin (Mildform® 10 NM, Wako). The 10% buffered formalin was replaced with a blocking buffer (3% BSA/PBS/sodium azide), and the plate was used in ELISA.
(§6) After washing with a washing liquid twice, anti-mouse-IgG antibody-HRP conjugate solutions (50 μL) adjusted to predetermined concentrations with 0.1% skimmed milk/3% BSA/PBS were added to respective wells and were subjected to reaction at room temperature for about 1 hour. After washing with a washing liquid twice, 100 μL of a substrate (TMB) was added to each well to start the reaction. After about 30 minutes, 100 μL of 0.5 M sulfuric acid was added to each well to stop the reaction, and the absorbances at 450 nm was measured. The value of the absorbance at 450 nm was evaluated as the avidity.

[7] = molecular target: T5, human insulin receptor (human, UniProt P06213 28-1382); assay: Cell ELISA, fixed HEK 293T cells expressing the receptor
T5 construct: whole, on cells; Expressed on transfected HEK 293T cells; also called INSR; hINSR
Protocol: The HEK 293T cells after the lipofection were added to a 96-well plate (coated with poly-D-lysine) at a concentration of 0.8×10⁵ cells/well (about 180 μL/well) and were immobilized with 10% buffered formalin (Mildform® 10 NM, Wako), followed by blocking with phosphate buffer containing 3% BSA. The plate was used in ELISA.
In ELISA, antibody solutions (30 μL) adjusted to predetermined concentrations with 0.1% skimmed milk/3% BSA/PBS were added to respective wells and were subjected to reaction at room temperature for about 1 hour. After washing with a washing liquid (tris buffer containing Tween) twice, anti-mouse-IgG antibody-ALP conjugate solutions (30 μL) adjusted to predetermined concentrations with 0.1% skimmed milk/3% BSA/PBS were added to respective wells and were subjected to reaction at room temperature for about 1 hour. After washing with a washing liquid twice, 100 μL of a substrate (PNPP) was added to each well to start the reaction.

[8] = molecular target: T6, wild-type rat IGF-I receptor (FLAG tag, Example 7) (rat, UniProt P24062 31-1370); assay: Cell ELISA on HEK 293T cells expressing the receptor
T6 construct: Expressed on transfected HEK 293T cells
T6 sequence (P24062 other isoform, or with tags, fused parts or gaps limits assumed): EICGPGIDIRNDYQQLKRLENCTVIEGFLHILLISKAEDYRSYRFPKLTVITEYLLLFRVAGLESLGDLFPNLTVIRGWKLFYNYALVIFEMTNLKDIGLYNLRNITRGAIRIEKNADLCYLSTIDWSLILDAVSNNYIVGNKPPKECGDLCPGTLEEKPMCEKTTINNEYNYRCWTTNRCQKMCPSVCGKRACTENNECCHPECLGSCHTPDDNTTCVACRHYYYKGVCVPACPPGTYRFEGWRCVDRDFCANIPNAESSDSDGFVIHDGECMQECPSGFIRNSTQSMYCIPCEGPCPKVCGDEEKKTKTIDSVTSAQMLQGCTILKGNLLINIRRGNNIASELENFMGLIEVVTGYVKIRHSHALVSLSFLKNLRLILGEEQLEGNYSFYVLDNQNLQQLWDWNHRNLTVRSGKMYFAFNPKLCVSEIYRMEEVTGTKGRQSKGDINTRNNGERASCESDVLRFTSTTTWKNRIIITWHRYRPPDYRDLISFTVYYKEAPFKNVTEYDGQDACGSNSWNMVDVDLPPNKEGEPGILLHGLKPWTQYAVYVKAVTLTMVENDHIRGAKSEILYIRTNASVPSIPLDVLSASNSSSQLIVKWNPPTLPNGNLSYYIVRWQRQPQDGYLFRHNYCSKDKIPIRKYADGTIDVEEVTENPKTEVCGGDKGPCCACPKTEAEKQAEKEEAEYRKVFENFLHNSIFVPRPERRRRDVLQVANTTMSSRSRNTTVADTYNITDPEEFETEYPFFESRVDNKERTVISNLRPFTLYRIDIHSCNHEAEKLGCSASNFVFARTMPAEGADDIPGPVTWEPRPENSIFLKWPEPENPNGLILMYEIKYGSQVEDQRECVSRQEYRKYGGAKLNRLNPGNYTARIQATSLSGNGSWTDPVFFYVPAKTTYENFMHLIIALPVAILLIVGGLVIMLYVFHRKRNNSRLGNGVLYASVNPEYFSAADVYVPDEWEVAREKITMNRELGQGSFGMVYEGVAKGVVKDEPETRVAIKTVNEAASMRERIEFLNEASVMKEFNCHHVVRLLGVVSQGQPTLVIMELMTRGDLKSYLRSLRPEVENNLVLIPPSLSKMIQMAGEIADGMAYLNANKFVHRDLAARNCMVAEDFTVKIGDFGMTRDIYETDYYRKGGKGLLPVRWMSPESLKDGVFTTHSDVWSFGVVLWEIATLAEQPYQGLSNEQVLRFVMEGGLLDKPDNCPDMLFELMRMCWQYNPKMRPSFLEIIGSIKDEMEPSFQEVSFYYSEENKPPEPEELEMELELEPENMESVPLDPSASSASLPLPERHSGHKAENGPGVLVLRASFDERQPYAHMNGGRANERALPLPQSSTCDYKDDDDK
Protocol: as §5, §6

[9] = molecular target: T1, recombinant human IGF-I receptor His …; assay: SPR, Biacore T200, 36 °C, IGF-IR-His captured by anti-His antibody, 1:1 model
Protocol: An anti-His monoclonal antibody was immobilized to a sensor chip CM3 (GE) with an Amine Coupling Kit (BR-1000-50, GE) and a His Capture Kit (28-9950-56, GE). The immobilization conditions were NHS/EDC: 7 minutes, 50 μg/mL anti-His monoclonal antibody: 3 minutes, ethanolamine: 7 minutes, and target: ≥3000 RU. As analytes, the agent was used at predetermined concentrations.
as §1, §2

B1: IGF11-16 (antibody, mouse IgG1, kappa, V domains shown)
VH: QIQLQQPGAELVKPGASVKLSCKAPGYTFTSYWMHWVKQRPGQGLEWIGETNPSNSVTNYNEKFKSKATLTVDKSSSTAYMQLSSLTSEDSAVYYCTIGRGRGFAYWGQGTLVTVSA
VL: DIQMNQSPSSLSASLGDTITITCRASQNINFWLSWCQQKPGNIPKLLIYKASNLHTGVPSRFSGSGSGTDFTLTISSLQPEDIATYYCLQGQSYPYTFGGGTKLEIKR
notes: no cleavage site is stated; also called IGF-I receptor agonist antibody; IGF11-16 antibody
With B1 the “KD relative to that of IGF-I” value [1] was < 0.02 fold of IGF-I, the “ka relative to that of IGF-I” value [1] was ~0.2 fold of IGF-I and the “kd relative to that of IGF-I” value [1] was < 0.001 fold of IGF-I. For the same binder, the “Avidity (absorbance difference 450-550 nm, Mock cells = 1)” value [2] was 5.4 fold of Mock cells, the “Avidity (absorbance difference 450-550 nm, Mock cells = 1)” value [3] was 5.4 fold of Mock cells and the “EC50 of the myoblast proliferative activity, human myoblasts” value [4] was 4 pM. The “EC50 of the myoblast proliferative activity, guinea pig myoblasts” value [5] was 4 pM, the binding result [6] was “no binding (tested: 1 nM)” and the “avidity (absorbance difference 405-550 nm, Mock cells = 1) at 0.5 nM” value [7] was 1.1 fold of Mock cells. The “avidity (absorbance difference 405-550 nm, Mock cells = 1) at 5 nM” value [7] was 1.4 fold of Mock cells, the binding result [8] was “no binding (tested: 1 nM)” and the Kd [9] was under 10 pM. For the same binder, the koff [9] was under 1e-05 s⁻¹ and the kon [9] was 1.05e+06 M⁻¹ s⁻¹.

Source: patent US20200115460A1 (TEIJIN PHARMA, published 2020)
